Test results published in patent US12331110B2, “Monoclonal antibodies against endotrophin and the use thereof” (THE BOARD OF REGENTS OF THE UNIVERSITY OF TEXAS SYSTEM, priority 2018, dated 2025).

Tested on: MCF7 breast cancer cells
Experiment: MCF7 cisplatin/endotrophin cell survival (MTS) neutralization assay
Type: cell-based, human
Procedure: FIGS. 3A-D. Generation and screening of anti-human endotrophin. (FIG. 3A) MCF7 breast cancer cells (20,000 cells) were plated into a 96-well plate. Cells were then treated with 10 μm cisplatin, 10 μm cisplatin/100 ng/mL endotrophin, and 10 μm cisplatin/100 ng/mL endotrophin/10 μg/mL ETPmAb4 for 24 hr. Cell survival was measured using a CellTiter One Solution Cell Proliferation Assay. Statistical significance of the curve fit parameters was tested using the extra sum of squares F test with P<0.05 considered significant. Goodness of curve fit is described using r2. Mean±SEM, n=3. (FIG. 3B) ETP transfected MCF7 cells (100,000 cells) were plated into a 24-well plate with 500 μL media. Then 4 μL of supernatant was loaded for Western blotting. It is estimated that approximately 1 ng of ETP was loaded, compared with the standard ETP (2 ng band). The concentration yields approximately 0.052 pg secreted ETP/hr/cell. […] ETP expression was determined by qRT-PCR and normalized to GAPDH. […] Migrated cells were counted after a 2 hr incubation. In all cases, data was represented as mean±SD, and statistical significance (*** p<0.0001) was calculated using an unpaired Student's t-test.
MTS assay screening endotrophin monoclonal antibodies. […] Cell survival was measured using a CellTiter One Solution Cell Proliferation Assay. […] The plate was then read at 490 nm using a Sunrise microplate reader (TECAN). […]

B1: ETP-mAb4: rabbit monoclonal anti-human endotrophin antibody selected for further study; VH SEQ ID NO: 125, VL SEQ ID NO: 126 (antibody, V domains shown)
VH: SSRVKESGGDLVKPGASLTLTCKASGFSFSSGYYICWVRQAPGKGLEWIACIYGGNNNPYYANWVNGRFTTSKTSSTTVTLQMTNLTGADTATYFCARKDINIGGAYELWGPGTLVTISS
VL: ELVMTQTPASVSEPVGGTVTINCQASQSISSSYLSWYQQKPGQPPKLLIYKASTLASGVPSRFKGSGSGTQFSLTISDLECADAATYYCQYSDWANSYGNAFGGGTEVVVK
- neutralization of endotrophin-mediated MCF-7 cell survival (10 μm cisplatin, 100 ng/mL endotrophin, 10 μg/mL antibody, 24 hr): completely neutralize
- restoration of cisplatinum susceptibility of endotrophin-exposed MCF-7 cells (cisplatin plus endotrophin): forced the cells to become susceptible to cisplatinum, in a dose-dependent manner
